Several values for one entry are separate records, joined by “and”; a condition that tells them apart may be missing. Equal entries are not always repeated.

One may read the EC50 as the midpoint of the concentration-response curve. A lower EC50 goes with greater potency.

Experiment [1] has as its target T1, human ROR1 (human, UniProt Q01973 30-937).
T1 construct: whole, on cells; Endogenous ROR1 on ROR1-positive cells; also called tyrosine-protein kinase transmembrane receptor ROR1; neurotrophic tyrosine kinase, receptor-related 1
Nature of the experiment: flow cytometry on ROR1-positive RPMI8226 cells. On the procedure:
a) Anti-ROR1 antibodies coming either from the immunization approach and/or from the screening of the recombinant in vitro library described above are analyzed by flow cytometry for binding to human ROR1 on HEK293-ROR1 cells. Briefly, cultured cells are harvested, counted and cell viability is evaluated using the Trypan Blue exclusion method. Viable cells are then adjusted to 2×10⁶ cells per ml in BSA-containing FACS Stain Buffer (BD Biosciences). 90 μl of this cell suspension are further aliquoted per well into a round-bottom 96-well plate. 10 μl of the anti-ROR1 antibodies or corresponding IgG control are added to the cell-containing wells to obtain final concentrations of 0.1 pM to 200 nM. All constructs and control IgG are used at the same molarity. […] The samples are resuspended in 200 μl/well FACS Stain Buffer and acquired and analyzed using an LSR II flow cytometer with FACSDiva® software (BD Biosciences). The mean fluorescence intensity (MFI) is plotted as a function of anti-ROR1 antibody concentration to obtain the binding curve and to calculate the effective antibody concentration to reach 50% of maximal binding (EC₅₀). […]
c) ROR1 expression was then assessed on B lymphocyte myeloma RPMI8226 cell lines by flow cytometry, using the methods described above.
(In general: Flow cytometry measures light scatter and fluorescence of single cells or particles in a stream.)

Experiment [2] addresses T2, human CD3ε (human, UniProt P07766 23-207).
T2 construct: whole, on cells; On Jurkat cells as part of the TCR/CD3 complex; also called CD3 epsilon
As to the kind of experiment: flow cytometry on Jurkat T cells expressing human CD3. As for the experimental part: a) Anti-ROR1/anti-CD3 T cell bispecific antibodies generated in Example 3 were also analyzed by flow cytometry for their binding properties to human ROR1 expressed on primary B-CLL cells or human CD3 expressed on human leukemic T cells Jurkat (ATCC TIB-152). Jurkat T cells were cultured in RPMI supplemented with 10% fetal calf serum. Briefly, cultured cells were harvested, counted and cell viability was evaluated using ViCell. Viable cells were then adjusted to 2×10⁶ cells per ml in FACS Stain Buffer (BD Biosciences) containing 0.1% BSA. 100 μl of this cell suspension were further aliquoted per well into a round-bottom 96-well plate. […] After incubation for 30 min at 4° C., cells were centrifuged (5 min, 350×g), washed twice with 150 μl/well BSA-containing FACS Stain Buffer (BD Biosciences), then cells were fixed using 100 ul BD Fixation buffer per well (#BD Biosciences, 554655) at 4° C. for 20 min, resuspended in 120 μl FACS buffer and analyzed using BD FACS CantoII. Binding of the anti-ROR1/anti-CD3 T cell bispecific antibodies to B-CLL cells and T cells were evaluated and the mean fluorescence intensity was determined gated on either ROR1-expressing B-CLL cells or CD3-expressing Jurkat T cells and plotted in histograms or dot plots. […]

T1 sequence (Q01973 30-937): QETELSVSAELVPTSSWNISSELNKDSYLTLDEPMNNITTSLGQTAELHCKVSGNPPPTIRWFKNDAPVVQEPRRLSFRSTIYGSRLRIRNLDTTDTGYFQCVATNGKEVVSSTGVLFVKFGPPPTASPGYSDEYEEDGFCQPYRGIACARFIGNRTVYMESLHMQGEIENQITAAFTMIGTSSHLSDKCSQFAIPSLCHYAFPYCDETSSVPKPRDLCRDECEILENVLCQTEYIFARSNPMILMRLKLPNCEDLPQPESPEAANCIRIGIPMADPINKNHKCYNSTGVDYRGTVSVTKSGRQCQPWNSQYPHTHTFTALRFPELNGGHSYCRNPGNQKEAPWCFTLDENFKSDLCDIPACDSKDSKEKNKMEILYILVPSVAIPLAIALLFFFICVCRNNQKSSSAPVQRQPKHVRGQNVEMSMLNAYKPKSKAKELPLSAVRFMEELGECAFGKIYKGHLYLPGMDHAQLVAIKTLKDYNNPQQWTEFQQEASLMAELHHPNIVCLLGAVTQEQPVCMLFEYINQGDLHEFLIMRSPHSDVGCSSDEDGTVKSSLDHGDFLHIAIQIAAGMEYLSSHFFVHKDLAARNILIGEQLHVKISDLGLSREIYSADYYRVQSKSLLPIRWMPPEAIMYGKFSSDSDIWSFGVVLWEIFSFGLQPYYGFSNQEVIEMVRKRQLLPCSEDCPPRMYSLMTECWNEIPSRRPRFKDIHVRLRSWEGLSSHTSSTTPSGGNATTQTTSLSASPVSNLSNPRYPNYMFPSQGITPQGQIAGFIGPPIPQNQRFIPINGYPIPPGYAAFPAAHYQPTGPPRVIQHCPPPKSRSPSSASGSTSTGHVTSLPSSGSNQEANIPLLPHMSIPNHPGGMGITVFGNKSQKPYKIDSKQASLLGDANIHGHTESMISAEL
T2 sequence (P07766 23-207): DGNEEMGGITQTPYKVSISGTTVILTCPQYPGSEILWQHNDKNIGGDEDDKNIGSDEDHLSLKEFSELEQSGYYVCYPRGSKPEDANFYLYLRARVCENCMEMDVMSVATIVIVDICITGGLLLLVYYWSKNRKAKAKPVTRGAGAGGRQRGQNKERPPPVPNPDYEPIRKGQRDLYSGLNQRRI

B1: anti-ROR1 IgG1 antibody (antibody, V domains shown)
VH: QEQLVESGGRLVTPGGSLTLSCKASGFDFSAYYMSWVRQAPGKGLEWIATIYPSSGKTYYATWVNGRFTISSDNAQNTVDLQMNSLTAADRATYFCARDSYADDGALFNIWGPGTLVTISS
VL: ELVLTQSPSVSAALGSPAKITCTLSSAHKTDTIDWYQQLQGEAPRYLMQVQSDGSYTKRPGVPDRFSGSSSGADRYLIIPSVQADDEADYYCGADYIGGYVFGGGTQLTVLG
notes: Bivalent human IgG1 kappa; Alexa488-labelled in some assays; also called anti-ROR1 antibody; anti-ROR1 IgG antibody
B1: the concentration giving a half-maximal response (EC50) in experiment [1] is 0.087 nM and 0.013 µg/mL. Besides, the binding result in experiment [2] is reported as “no binding (tested: 3 nM to 500 nM)”.

Source of the values: US20160297881A1 (ENGMAB, published 2016).
